In the RNAGym collection of RNA variant scans (doi:10.1073/pnas.2313332121):

B1: TPR t1 (parent)
chain: GACCAAUCUGCCCUCAGAGCUCGAGAACAUCUUCGGAUGCAGAGGAGGCAGGCUUCGGUGGCGCGAUAGCGCCAACGUCCUCAACCUCCAAUGCAUCCCACCACAUGAUGAUGCCUGAAGAGCCUUGGUUUUUUG

Variants of: B1
Test: polymerase ribozyme fitness, log enrichment relative to wild type (log ratio); higher = more active; in vitro selection for triplet polymerase activity
Outline: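 Mutant libraries of both subunits of a heterodimeric triplet polymerase ribozyme were PCR-built, transcribed, and selected once in triplicate, with frozen incubation at −7 °C and capture of gel-excised extended constructs on streptavidin beads before RT-PCR. Illumina sequencing of input and output libraries was filtered to genotypes with ≥10 input reads and ≥1 read per output. Fitness is the logarithm of genotype enrichment over wild-type enrichment, using inverse-variance-weighted replicate averages. The logarithm is base 2.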
With GACCAAACUGCCCUCAGAGCUCGAGAACAUCUUCGGAUGCAGAGGAGGCAGGCUUCGGUGGCGCGAUAGAGCCAACGUCCUCAACCUCCAAUGCAUCCCACCACAUGAUGAUCCCUGAAGAGCCUUGGUUUUUUG [U7A C70A G113C] the “polymerase ribozyme fitness (log ratio)” value was -4.53. With GACCAAACUGCCCUCAGAGCUCGAGAACAUCUUCGGAUGCGGAGGAGGCAGGCUUCGGUGGCGCGAUAGCGCCAACGUCCUCAACCUCCAAAGCAUCCCACCACAUGAUGAUGCCUGAAGAGCCUUGGUUUUUUG [U7A A41G U92A] the “polymerase ribozyme fitness (log ratio)” value was -1.89. With GACCAAACUGCCCUCAGAGCUCGAGAACAUUUUCGGAUGCAGAGGAGGCAGGCUUCGGUAGCGCGAUAGCGCCAACGUCCUCAACCUCCAAUGCAUCCCACCACAUGAUGAUGCCUGAAGAGCCUUGGUUUUUUG [U7A C31U G60A] the “polymerase ribozyme fitness (log ratio)” value was -4.77. In the case of GACCAAACUGCCCUCAGAGCUUGAGAACAUCUUCGGAUACAGAUGAGGCAGGUUUGGGUGGCACGAUUGCGCCAACGUCCUCAACCUCCAAUGCAUCCCACCACAUGAUGAUGCCUGAAGAGCAAUGGUUUUUUG [U7A C22U G39A G44U C53U C56G G63A A68U C124A U125A], the “polymerase ribozyme fitness (log ratio)” value is reported as -6.98. For GACCAAACUGCCCUCAGAGUUCGAGAACAUCUUCGGAUGCAGAGGAGGCAGGCUUCGGUGGCGCGAUAGCGCUAACGUCCUCAACCUCCAAUGCAUCCCACCACAUGAUGAUGCCUGAAAAGCCUUGGCUGUUUG [U7A C20U C73U G120A U129C U131G], the “polymerase ribozyme fitness (log ratio)” value was -0.869. For GACCAAACUGACCUCAGAGCUCGAGAACAUCUUCGGAUGCAGAGGAGGCAGGCUUCGGUGGCGCGAUAGCGCCAACAUCCGCAACCUCCAAUGCAUCCCACCACAUGAUGAUGCCUGAAGAGCCUUGGUUUUUUG [U7A C11A G77A U81G], the “polymerase ribozyme fitness (log ratio)” value was -1.65. In the case of GACCAAACUGCCUUCAGACCUCGAGAACAUCUUCGGAUGCAGAGGAGGCAGGCUUCGGUGGCGCGAUAGCGCCAACGUCCUCAACCUCCAAUGCAUCCCACCACAUGAUGAUUCCUGAAGAGCCUUGGUUUUUUG [U7A C13U G19C G113U], the “polymerase ribozyme fitness (log ratio)” value is reported as -1.96. For GACCAAACUGCCCUAAGAGCUCGAGAACAUCUUCGGAUGCAGAGGAGGCAGGCUUCGGUGGUGUGAUAGCGCCAACGUCCUCAACCUCCAAUUCAUCCCACCACAUGAUGAUGCCUGAAGAGCCUUGGUUUUUUG [U7A C15A C62U C64U G93U], the “polymerase ribozyme fitness (log ratio)” value was -1.99. For GACCAAACUGCCCUCAGAGCUCGAGAACAUCUUCGGAUGCUGAGGAGGCAGGCUUCGGUGGCGCGAUAGCGCCAACGUCCUCAAUCUCCAAUGCAUCCCACCACAUGAUGAUGCCUGAAGAGCCUUGGUUUUUUG [U7A A41U C85U], the “polymerase ribozyme fitness (log ratio)” value was -1.81. With GACCAAACUGCCCUCAGAGCUCGAGAACAUCUUCGGAUGCGGAGGAGGCAGGCUUCGGUGGCGCGCUAGCGCCAACGUCCUCAACCUCCAAUGCAUCCCACCACAUGAUGAUGCCUGAAGAGCCUUGGUUUUUUG [U7A A41G A66C] the “polymerase ribozyme fitness (log ratio)” value was -1.26. For GACCAAACUGCCCUCAGAGCUCGAGAACAUCUUCGGAUGCAGAGGAGGCAGGCUUCGGUGGCGCGAUAGCGACAACGUCCUCAACCUCCAAUCCAUCCCACCACAUGAUGAUGCCUGAAGAGCCUUGGUUUUUUG [U7A C72A G93C], the “polymerase ribozyme fitness (log ratio)” value was -0.463. In the case of GACCAAACUGCCAUCAGAGCUCGAGAACAUCUUCGGAUGCAGAGGAGGCAGGCUUCGGUGGCGCGAUAGCGCCAACGUCCUCAACCUCCAAUGCAUCCCACCACAUGAUGAUGCCUGAAGAGCCUUGGUUUUUUG [U7A C13A], the “polymerase ribozyme fitness (log ratio)” value is reported as -0.751. With GACCAAACUGCCCUCAGAGCUCGAGAACAUCUUCGGAUGCAGAGGAGGCAGGCUUCGGUGGCGCGAUAGCGCCAACGUCCUCAACCUCCAAUGCAUCCCACCUCAUGAUGAUGCCUGAAGAGCCUUGGUUUUUUG [U7A A103U] the “polymerase ribozyme fitness (log ratio)” value was -4.28. With GACCAAACUGCCUUCAGAGCUCGAGAGCAUCUUCGUAUGCAGAGGAGGCCGGCUUCGGUGGCGCGAUAGCGCCAACGUCCUCAACCUCCAAUGCAUCCCACCACAUGAUGAUGCCUGAAGAGCCUUGGUUUUUUG [U7A C13U A27G G36U A50C] the “polymerase ribozyme fitness (log ratio)” value was -2.73. In the case of GACCAAACUGCCCUCAGAGCUCGAGAACAUCUUCGGAUGAAGAGGAGGCAGGCUUCGGUGGCGCGAUAGCUCCAACGUCCUCAACCUCGAAUGCAUCCCACCCCAUGAUGAUGCCUGAAGAGCUUUGGUUUUUUG [U7A C40A G71U C89G A103C C124U], the “polymerase ribozyme fitness (log ratio)” value is reported as -6.17. In the case of GACCAAACUGCCCUCAGAGCUCGAGAACAUCUUCGGAUGUAGAGGAGGCAGGCUUCGGUGGCGCGAUAGCGCCAACGUCCUCAACCUCCAAUGCAUCCCACCACAUGAUGAUGCCUGAAGAGCCUUGGUUUUUUG [U7A C40U], the “polymerase ribozyme fitness (log ratio)” value is reported as 0.348. In the case of GACCAAACUGCCCUCAGAGCUCGAGAACAUCUUCGGAUGGAGAGGAGGCAGGCUUCGGUGGCGCGAUAGCGCCAACGUCCUCAACCUCCAAUGCAUCCCACCACAUGAUGAUGCCUGAAGAGCCUUGGUUUUUUG [U7A C40G], the “polymerase ribozyme fitness (log ratio)” value is reported as -0.25. In the case of GACCAAACUGCCCUCAGAGCUCGAGAACAUCUUCGGAUGCAGAGGAGGCAGGCUUCGGUGGCGCGAUAGCGUCAACCUCCUCAACCUCCAAUCCAUCCCACCACAUGAUGAUACCUGAAAAGCCUUGGUUUUUUG [U7A C72U G77C G93C G113A G120A], the “polymerase ribozyme fitness (log ratio)” value is reported as -2.99. With GACCAAACUGACCUCAGAGCUCGAGUACAUCUUCGGAUGCAGAGGAGGCAGGCUUCGGUGGCACGAUAGCGCCAACGUCCUCAACCUCCAAUGCAUCCCACCACAUGAUGAAGCCUGAAGAGCCUUUGUUUUUUG [U7A C11A A26U G63A U112A G127U] the “polymerase ribozyme fitness (log ratio)” value was -3.63. In the case of GACCAAACUGCCCUCAGAGCUCGAGAACAUCUUCGGAUGCAGAGGUGGCUGGCUUCGGUAGCGCGAUAUCGCCAACGUCCUCAACCUCCAAUGCACCCCACCACAUGAUGAUGCCUGAAGAGCCUUGGUUUUUUG [U7A A46U A50U G60A G69U U96C], the “polymerase ribozyme fitness (log ratio)” value is reported as -1.72. For GACCAAACUGCCCUCAGAGCUCGAGAACAUCUUCGGAUGCAGAGGAGGCAGGUUUCGGUGGCGCGAUAGCGCCAACGUCCUCAACUUCCGAUGCAUCCCACCACAUGAUGAUGCCUGAAGAACCUUGGUUUUUUG [U7A C53U C86U A90G G122A], the “polymerase ribozyme fitness (log ratio)” value was -1.97.
